Test results: US20180127503A1 (EUREKA THERAPEUTICS, published 2018)

Assays:
[1] = biological target: T1, human ROR2 ECD-Fc fusion protein (human, UniProt Q01974 34-403); assay: summary of the phage clone screening (ELISA)
T1 construct: Panning and phage ELISA antigen; also called human ROR2-ECD (phage ELISA); not shown: Fc part and any linker are not described

[2] = biological target: T1, human ROR2 ECD-Fc fusion protein; assay: phage ELISA on coated ROR2 ECD-Fc
[3] = biological target: T2, human ROR1 ECD-Fc fusion protein (human, UniProt Q01973 30-406); assay: summary of the phage clone screening (ELISA)
T2 construct: not shown: Fc part and any linker are not described
T2 sequence (Q01973 30-406): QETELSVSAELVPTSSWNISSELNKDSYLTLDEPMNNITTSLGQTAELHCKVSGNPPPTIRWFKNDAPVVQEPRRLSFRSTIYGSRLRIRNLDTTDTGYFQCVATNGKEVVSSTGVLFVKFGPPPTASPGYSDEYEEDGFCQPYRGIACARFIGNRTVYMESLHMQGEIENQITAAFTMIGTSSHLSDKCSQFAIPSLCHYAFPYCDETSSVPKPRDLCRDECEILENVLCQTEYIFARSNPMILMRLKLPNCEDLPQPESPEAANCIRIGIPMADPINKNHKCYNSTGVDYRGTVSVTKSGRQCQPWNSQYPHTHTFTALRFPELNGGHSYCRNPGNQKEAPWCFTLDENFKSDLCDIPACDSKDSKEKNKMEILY

T1 sequence (Q01974 34-403): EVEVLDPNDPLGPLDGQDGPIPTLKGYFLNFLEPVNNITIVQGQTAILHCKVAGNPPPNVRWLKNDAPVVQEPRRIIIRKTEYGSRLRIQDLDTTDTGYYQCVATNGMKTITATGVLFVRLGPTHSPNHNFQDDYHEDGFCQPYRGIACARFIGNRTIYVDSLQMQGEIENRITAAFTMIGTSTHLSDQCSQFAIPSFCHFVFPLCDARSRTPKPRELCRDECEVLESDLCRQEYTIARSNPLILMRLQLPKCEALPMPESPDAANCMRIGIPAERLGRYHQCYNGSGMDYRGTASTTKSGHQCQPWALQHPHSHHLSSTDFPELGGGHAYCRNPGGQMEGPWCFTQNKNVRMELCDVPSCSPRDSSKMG

| Binder | binding result [1] | binding result [2] | binding result [3] |
| --- | --- | --- | --- |
| ROR2 clone #096 scFv phage antibody (scFv, V domains shown, also called clone #96; ROR2-96) VH: EVQLVQSGGGLVQPGGSLRLSCAASGFSLNDYYMDWVRQAPGEGLEWVGRIRDKAHGDTTEYIASVKDRFIVSRDDSKNSLYLQMNSLKTEDTAMYYCARWVDDYQGYWIWSYHDFWGQGTLVTVSS VL: EIVLTQSPLSLPVTLGQPASISCRSSQSLAYSDGNTYLNWFHQRPGQSPRRLIYKVSKRDSGVPDRFSGSGSGTDFTLRISRVEAEDVGIYYCMQGTHWPHTFGPGTKVDIKR | binds | – | – |
| ROR2 clone #024 scFv phage antibody (scFv, V domains shown, also called clone #24; ROR2-24) VH: EVQLVQSGAEVKKPGESLKISCKASGYSFSNYWIGWVRQMPGKGLEWMGIIYPDDSDTRYSPSVQGQVTISADKSISTAYLQWYSLKVADTAKYYCVRPRGAFDIWGQGTTVTVSS VL: EIVMTQSPATLSVSPGESATLSCRASQGVGINLAWYQQRPGQPPRLLIYDASNRATGIPARFSGSGSGTDFTLTISSLQAEDVAVYYCQQYYSFPWTFGQGTKVEIKR | – | binds | – |
| ROR2 clone #159 scFv phage antibody (scFv, V domains shown, also called ROR2-159) VH: QMQLVQSGAEVKKPGASVKVSCKASGYTFTSYYMHWVRQAPGQGLEWMGIINPSGGSTSYAQKFQGRVTMTRDTSTSTVYMELSSLRSEDTAVYYCARGGYTGWSPSDPWGQGTLVTVSS VL: QSALTQPASVSGSPGQSITISCTGTSSDVGGYNYVSWYQQHPGKAPKFMIYDVSKRPSGVSNRFSGSKSGNTASLTISGLQAEDEADYYCGSFTSSITYVFGTGTKVTVLG | binds | – | binds |
| ROR2 clone #173 scFv phage antibody (scFv, V domains shown, also called ROR2-173) VH: QVQLVQSGAEVKKPGASVKVSCKASGYTFTSYGISWVRQAPGQGLEWMGWISAYNGNTNYAQKLQGRVTMTTDTSTSTAYMELRSLRSDDTAVYYCARHLGPMGMYDWSFDKWGQGTLVTVSS VL: QSVLTQPPSVSVAPGKTARITCGGDNIGRKSVHWYQQKPGQAPVLVIYYDSDRPSGIPERFSGSTSGNTATLTISRVEAGDEADYYCQVWDRSSDLYVFGTGTKVTVLG | binds | – | – |
| ROR2 clone #084 scFv phage antibody (scFv, V domains shown, also called clone #84; ROR2-84) VH: QVQLVESGGGLVQPGGSLRLSCAASGFTFSSYWMSWVRQAPGKGLEWVANIKQDGSEKYYVDSVRGRFTISRDNAKNSLYLQMNSLRAEDTAMYYCARGSFSYDSDLWGQGTLVTVSS VL: DVVMTQSPLSLPVTLGQPASISCRSSQSLVHSDGNTYLNWFQQRPGQSPRRLIYKVSSRDSGVPDRFSGTGSGTDFTLKISRVEAEDVGVYYCMQTTHWPPTFGQGTKVEIKR | binds | – | – |
| ROR2 clone #093 scFv phage antibody (scFv, V domains shown, also called clone #93; ROR2-93) VH: QMQLVQSGGGVVQPGRSLRLSCAASGFTFSNYDMHWVRRAPGKGLEWVAVISYDGSNNYYADSVKGRFTISRDNSKNTLYLQMNSLRAEDTAVYYCARSSAWVGGGFLSGTDDWGQGTLVTVSS VL: EIVMTQSPATLSLSPGERATLSCGASQSVSSSYLAWYQQKPGLAPRLLIYDTSRRATGIPDRFSGSGSGTDFTLTISRLEPEDFAVYYCLHYGRSPPVTFGGGTKVEIKR | binds | – | – |
| ROR2 clone #121 scFv phage antibody (scFv, V domains shown, also called ROR2-121) VH: QVQLVQSGGGLVQPGGSLRLSCAATGFTFSSYAMSWVRQAPGKGLEWVSVISGSGGSTYYADSVKGRFTISRDNSKNTLYLQMNSLRADDTAVYYCARHYYSSDSWGQGTLVTVSS VL: SYVLTQPPSVSVSPGQTASVTCSGYRLREKYVSWYQQRPGHSPVLVIYEDTKRPSGIPERFSGSNSGDTATLTIRGTQAIDEADYYCQAWDSSVIFGGGTKLTVLG | binds | – | – |
| ROR2 clone #016 scFv phage antibody (scFv, V domains shown, also called clone #16; ROR2-16) VH: EVQLVQSGAEVKKPGASVKVSCKASGYTFTDYYIHWVRQAPGQGLEWMGWMNPNSGNSVSAQKFQGRVTMTRDTSINTAYMELSSLTSDDTAVYYCARNSEWHPWGYYDYWGQGTLVTVSS VL: SSELTQDPAVSVALGQTVRITCQGDSLRSYYASWYQQKPGQAPVLVIYGKNNRPSGIPDRFSGSSSGNTASLTITGAQAEDEADYYCNSRDSSGNHLVFGGGTKLTVLG | binds | – | binds |
